This note sets out measurements from PMC3946434.

What all share (assay): AUC
Assay [1] has as its target HIV-1 capsid C-terminal domain construct CA144-231 (HIV-1) (UniProt P12493).
Assay [2] deals with HIV-1 capsid C-terminal domain construct CA146-231 (HIV-1) (UniProt P12493).
For assay [3] the target is unchanged. The source holds these as a separate data set.
In assay [4] the target is wild-type, full length HIV-1 capsid protein (CAFL, residues 1-231) (HIV-1) (UniProt P12493).

Like-named read-outs stand apart in the source and are kept apart here.

For “HIV-1 capsid C-terminal domain construct CA144-231 (from UniProt P12493 276-363) (domain or fragment)”, the Kd (usually the free concentration of one partner at which half of the binding sites on the other are occupied at equilibrium, for simple one-to-one binding) in assay [1] was 16 µM. This counts as double-digit micromolar. In the case of “HIV-1 capsid C-terminal domain construct CA146-231 (from UniProt P12493 278-363) (domain or fragment)”, the results for the Kd in assay [2] and in assay [3] were 24 µM and 23 µM, respectively. As to “wild-type, full length HIV-1 capsid protein (CAFL, residues 1-231) (from UniProt P12493) (natural protein)”, the Kd in assay [4] turned out to be 20 µM. This lies in the double-digit micromolar range.
